Data on seven molecules can be found in patent US20170008933A1 (GlaxoSmithKline, published 2017).

Assay [1] concerns the target T1, human factor H (human, UniProt P08603 19-1231).
T1 construct: Immobilised on the chip in the SPR experiments; also called fH
Kind of assay: SPR. A general note: SPR reads the build-up and loss of mass on a sensor chip optically.

In assay [2] the target is T1, human factor H. Kind of assay: SPR against immobilised fH.

T1 sequence (P08603 19-1231 limits assumed): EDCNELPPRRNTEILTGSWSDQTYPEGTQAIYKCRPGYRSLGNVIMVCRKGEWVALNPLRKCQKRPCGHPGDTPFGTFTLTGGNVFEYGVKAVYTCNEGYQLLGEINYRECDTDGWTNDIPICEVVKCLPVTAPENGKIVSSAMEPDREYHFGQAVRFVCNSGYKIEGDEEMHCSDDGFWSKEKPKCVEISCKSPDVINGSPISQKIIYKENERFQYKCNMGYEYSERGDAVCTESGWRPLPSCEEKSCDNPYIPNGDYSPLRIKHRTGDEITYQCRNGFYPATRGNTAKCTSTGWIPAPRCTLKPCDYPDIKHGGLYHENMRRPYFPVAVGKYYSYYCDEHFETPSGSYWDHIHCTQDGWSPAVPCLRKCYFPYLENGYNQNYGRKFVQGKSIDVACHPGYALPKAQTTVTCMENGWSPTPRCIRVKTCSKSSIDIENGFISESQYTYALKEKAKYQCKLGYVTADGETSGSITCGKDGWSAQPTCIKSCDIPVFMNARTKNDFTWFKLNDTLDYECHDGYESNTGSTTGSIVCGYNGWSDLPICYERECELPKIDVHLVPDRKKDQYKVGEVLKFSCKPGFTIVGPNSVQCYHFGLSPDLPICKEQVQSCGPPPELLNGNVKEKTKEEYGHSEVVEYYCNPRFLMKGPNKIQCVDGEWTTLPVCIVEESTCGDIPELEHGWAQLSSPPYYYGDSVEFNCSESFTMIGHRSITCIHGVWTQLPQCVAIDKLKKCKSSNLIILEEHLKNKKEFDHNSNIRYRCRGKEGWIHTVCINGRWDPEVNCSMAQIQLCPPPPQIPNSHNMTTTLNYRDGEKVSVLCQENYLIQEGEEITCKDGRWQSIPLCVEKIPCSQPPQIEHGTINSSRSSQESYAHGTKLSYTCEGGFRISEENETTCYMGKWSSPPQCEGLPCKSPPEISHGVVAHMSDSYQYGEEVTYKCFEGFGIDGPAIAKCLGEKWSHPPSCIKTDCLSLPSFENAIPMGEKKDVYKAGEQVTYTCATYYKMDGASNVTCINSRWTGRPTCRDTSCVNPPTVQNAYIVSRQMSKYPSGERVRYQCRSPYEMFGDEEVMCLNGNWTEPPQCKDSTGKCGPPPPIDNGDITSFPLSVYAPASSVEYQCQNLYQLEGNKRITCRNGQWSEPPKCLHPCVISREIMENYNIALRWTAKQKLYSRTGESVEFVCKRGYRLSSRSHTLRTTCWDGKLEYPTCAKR

B1: v3 fHbp L149R mutant (L126R of SEQ ID NO: 17) (other)
chain: VAADIGTGLADALTAPLDHKDKGLKSLTLEDSIPQNGTLTLSAQGAEKTFKAGDKDNSLNTGKLKNDKISRFDFVQKIEVDGQTITLASGEFQIYKQNHSAVVALQIEKINNPDKTDSLINQRSFRVSGLGGEHTAFNQLPGGKAEYHGKAFSSDDPNGRLHYSIDFTKKQGYGRIEHLKTLEQNVELAAAELKADEKSHAVILGDTRYGSEEKGTYHLALFGDRAQEIAGSATVKIGEKVHEIGIAGKQ
notes: also called v3 equivalent of mutant #4
As to B1, the binding result in the assay with human factor H [1] is reported as “binds”.

B2: v3 fHbp S58V mutant (S32V of SEQ ID NO: 17) (other)
chain: VAADIGTGLADALTAPLDHKDKGLKSLTLEDVIPQNGTLTLSAQGAEKTFKAGDKDNSLNTGKLKNDKISRFDFVQKIEVDGQTITLASGEFQIYKQNHSAVVALQIEKINNPDKTDSLINQRSFLVSGLGGEHTAFNQLPGGKAEYHGKAFSSDDPNGRLHYSIDFTKKQGYGRIEHLKTLEQNVELAAAELKADEKSHAVILGDTRYGSEEKGTYHLALFGDRAQEIAGSATVKIGEKVHEIGIAGKQ
notes: also called v3 equivalent of mutant #2
With B2, the “fold reduction of the SPR peak value against wild-type v3” value in the assay with human factor H [1] was roughly 2 fold.

B3: wild-type v2 fHbp (strain 2996) (other)
chain: VAADIGAGLADALTAPLDHKDKSLQSLTLDQSVRKNEKLKLAAQGAEKTYGNGDSLNTGKLKNDKVSRFDFIRQIEVDGQLITLESGEFQIYKQDHSAVVALQIEKINNPDKIDSLINQRSFLVSGLGGEHTAFNQLPDGKAEYHGKAFSSDDAGGKLTYTIDFAAKQGHGKIEHLKTPEQNVELAAAELKADEKSHAVILGDTRYGSEEKGTYHLALFGDRAQEIAGSATVKIGEKVHEIGIAGKQ
notes: Recombinant purified protein; The exact construct used in SPR is not spelled out; also called v2 w.t
As for B3, the binding result in the assay with human factor H [2] is reported as “binds”.

B4: v2 fHbp combined mutant #2 + #12 (other)
chain: VAADIGAGLADALTAPLDHKDKSLQSLTLDQVVRKNEKLKLAAQGAEKTYGNGDSLNTGKLKNDKVSRFDFIRQIEVDGQLITLESGEFQIYKQDHSAVVALQIEKINNPDKIDSLINQRSFRIGDIAGEHTAFNQLPDGKAEYHGKAFSSDDAGGKLTYTIDFAAKQGHGKIEHLKTPEQNVELAAAELKADEKSHAVILGDTRYGSEEKGTYHLALFGDRAQEIAGSATVKIGEKVHEIGIAGKQ
notes: also called mutant #23; S32V + L123-G128 RIGDIA
Turning to B4, the “fold reduction of the SPR peak value” in the assay with human factor H [1] is roughly 8 fold.

B5: v2 fHbp mutant #4 (L149R) (other)
chain: VAADIGAGLADALTAPLDHKDKSLQSLTLDQSVRKNEKLKLAAQGAEKTYGNGDSLNTGKLKNDKVSRFDFIRQIEVDGQLITLESGEFQIYKQDHSAVVALQIEKINNPDKIDSLINQRSFRVSGLGGEHTAFNQLPDGKAEYHGKAFSSDDAGGKLTYTIDFAAKQGHGKIEHLKTPEQNVELAAAELKADEKSHAVILGDTRYGSEEKGTYHLALFGDRAQEIAGSATVKIGEKVHEIGIAGKQ
notes: also called L123R
Consider B5, for which the binding result in the assay with human factor H [2] is recorded as “binds”.

B6: v2 fHbp mutant #2 (S58V) (other)
chain: VAADIGAGLADALTAPLDHKDKSLQSLTLDQVVRKNEKLKLAAQGAEKTYGNGDSLNTGKLKNDKVSRFDFIRQIEVDGQLITLESGEFQIYKQDHSAVVALQIEKINNPDKIDSLINQRSFLVSGLGGEHTAFNQLPDGKAEYHGKAFSSDDAGGKLTYTIDFAAKQGHGKIEHLKTPEQNVELAAAELKADEKSHAVILGDTRYGSEEKGTYHLALFGDRAQEIAGSATVKIGEKVHEIGIAGKQ
notes: also called S32V
In the case of B6, the binding result with human factor H [2] is “binds”.

B7: v2 fHbp mutant #3 + 'E313A' (other)
chain: VAADIGAGLADALTAPLDHKDKSLQSLTLDQVVRKNEKLKLAAQGAEKTYGNGDSLNTGKLKNDKVSRFDFIRQIEVDGQLITLESGEFQIYKQDHSAVVALQIEKINNPDKIDSLINQRSFRVSGLGGEHTAFNQLPDGKAEYHGKAFSSDDAGGKLTYTIDFAAKQGHGKIEHLKTPEQNVELAAAELKADEKSHAVILGDTRYGSEEKGTYHLALFGDRAQEIAGSATVKIGEKVHAIGIAGKQ
notes: also called S32V + L123R + E240A
Consider B7, for which the binding result with human factor H [1] is “no binding”.
